Measured values as given in US20240342207, “MODIFIED NUCLEIC ACID COMPOSITIONS AND ASSOCIATED METHODS FOR TREATMENT OF PHENYLKETONURIA” (BOARD OF REGENTS, THE UNIVERSITY OF TEXAS SYSTEM, published 2024).

Tests used:
Experiment in all cases: EMSA; one of 13 of 17 binding mutants; affinity not decreased
Conditions in all cases: tags: His-tag, E. coli; stem-loop
PAH F299C = molecular target: T1, PAH F299C (Homo sapiens, UniProt P00439 P00439:1-452, F299C)
T1 sequence: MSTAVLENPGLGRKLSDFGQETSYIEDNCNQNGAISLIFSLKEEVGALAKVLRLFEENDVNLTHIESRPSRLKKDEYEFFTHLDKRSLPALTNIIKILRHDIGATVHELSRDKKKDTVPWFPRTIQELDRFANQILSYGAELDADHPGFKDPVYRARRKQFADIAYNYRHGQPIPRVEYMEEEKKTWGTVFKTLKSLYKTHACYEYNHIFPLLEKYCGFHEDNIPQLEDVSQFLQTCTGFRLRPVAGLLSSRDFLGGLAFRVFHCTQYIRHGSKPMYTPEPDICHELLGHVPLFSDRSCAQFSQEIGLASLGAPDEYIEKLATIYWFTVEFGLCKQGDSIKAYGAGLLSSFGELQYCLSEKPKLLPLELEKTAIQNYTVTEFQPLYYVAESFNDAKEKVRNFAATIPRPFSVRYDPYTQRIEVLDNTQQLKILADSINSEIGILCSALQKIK

PAH I318T = molecular target: T2, PAH I318T (Homo sapiens, UniProt P00439 P00439:1-452, I318T)
T2 sequence: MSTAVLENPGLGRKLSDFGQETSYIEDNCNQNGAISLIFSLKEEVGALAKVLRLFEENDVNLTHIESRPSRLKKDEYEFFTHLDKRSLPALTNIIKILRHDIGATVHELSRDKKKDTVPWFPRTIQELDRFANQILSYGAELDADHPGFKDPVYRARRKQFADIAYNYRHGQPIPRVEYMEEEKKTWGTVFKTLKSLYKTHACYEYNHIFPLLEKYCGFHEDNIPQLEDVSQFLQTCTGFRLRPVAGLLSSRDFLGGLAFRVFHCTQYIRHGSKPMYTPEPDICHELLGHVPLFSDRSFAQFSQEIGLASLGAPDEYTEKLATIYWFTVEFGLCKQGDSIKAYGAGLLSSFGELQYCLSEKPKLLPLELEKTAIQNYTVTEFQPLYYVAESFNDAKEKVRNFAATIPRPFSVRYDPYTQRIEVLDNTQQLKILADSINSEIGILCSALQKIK

PAH I283N = molecular target: T3, PAH I283N (Homo sapiens, UniProt P00439 P00439:1-452, I283N)
T3 sequence: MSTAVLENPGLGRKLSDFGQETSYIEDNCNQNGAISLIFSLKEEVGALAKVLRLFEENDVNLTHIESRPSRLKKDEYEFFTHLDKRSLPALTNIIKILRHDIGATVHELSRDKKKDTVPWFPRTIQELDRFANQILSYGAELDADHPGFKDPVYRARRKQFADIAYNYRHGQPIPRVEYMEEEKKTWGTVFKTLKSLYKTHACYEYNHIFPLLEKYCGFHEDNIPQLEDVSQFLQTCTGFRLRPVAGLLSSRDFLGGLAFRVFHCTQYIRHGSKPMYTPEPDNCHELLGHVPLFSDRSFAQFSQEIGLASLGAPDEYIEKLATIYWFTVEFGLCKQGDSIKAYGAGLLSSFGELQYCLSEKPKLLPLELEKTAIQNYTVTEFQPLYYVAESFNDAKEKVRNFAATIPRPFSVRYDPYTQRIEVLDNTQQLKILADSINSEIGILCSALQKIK

PAH P275L = molecular target: T4, PAH P275L (Homo sapiens, UniProt P00439 P00439:1-452, P275L)
T4 sequence: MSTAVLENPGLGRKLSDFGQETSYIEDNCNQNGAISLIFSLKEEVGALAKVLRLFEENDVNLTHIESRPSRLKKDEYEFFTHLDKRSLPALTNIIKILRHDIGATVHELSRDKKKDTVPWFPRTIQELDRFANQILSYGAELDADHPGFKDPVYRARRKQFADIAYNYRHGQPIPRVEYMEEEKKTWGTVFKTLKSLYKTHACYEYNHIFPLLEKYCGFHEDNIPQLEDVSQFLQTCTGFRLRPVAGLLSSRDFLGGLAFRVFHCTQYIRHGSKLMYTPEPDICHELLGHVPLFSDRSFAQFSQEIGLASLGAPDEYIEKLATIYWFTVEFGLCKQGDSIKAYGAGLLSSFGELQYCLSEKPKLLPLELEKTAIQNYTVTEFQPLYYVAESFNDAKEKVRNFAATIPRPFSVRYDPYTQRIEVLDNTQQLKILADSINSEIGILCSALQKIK

PAH I65S = molecular target: T5, PAH I65S (Homo sapiens, UniProt P00439 P00439:1-452, I65S)
T5 sequence: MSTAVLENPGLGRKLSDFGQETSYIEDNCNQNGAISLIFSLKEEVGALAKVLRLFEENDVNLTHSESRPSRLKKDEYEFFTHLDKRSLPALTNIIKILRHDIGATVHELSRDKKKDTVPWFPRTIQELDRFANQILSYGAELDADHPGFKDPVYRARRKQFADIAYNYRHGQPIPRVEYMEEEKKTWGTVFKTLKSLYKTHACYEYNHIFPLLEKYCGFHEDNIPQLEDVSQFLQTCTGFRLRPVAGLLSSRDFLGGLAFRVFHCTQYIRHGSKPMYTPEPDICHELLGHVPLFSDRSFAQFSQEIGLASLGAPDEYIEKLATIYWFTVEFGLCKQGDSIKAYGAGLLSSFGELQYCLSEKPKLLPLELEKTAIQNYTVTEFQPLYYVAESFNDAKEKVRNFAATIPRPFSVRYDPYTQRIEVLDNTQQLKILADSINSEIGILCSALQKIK

Measured: binding result

CAAAAUGCAUAUGUAUCUUUG (ssRNA) [HULC 181-201 mimic]
binds: all assays above
